± gives the standard deviation of the averaged measurements.
B1: library; a variant is named by its letters at N, in order (parent)
chain: GCUGUCACCGGUGUAUUACCCUAGUGGUCGACCGGUCUGAUGAGUCUNNNNNNAGACGAAACAGC

Columns and labels:
hypoxanthine [1] = variants of: B1; experiment: FACS-Seq fitted mean relative fluorescence mCherry/BFP without ligand (log10 relative fluorescence); ligand: hypoxanthine (xanthine aptamer); higher = higher reporter protein expression; conditions: HEK293T, ligand present: no
Summary of the method: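 HEK293T libraries were lentivirally transduced with an mCherry reporter carrying the ribozyme switch and an EF1α-BFP marker, enriched, and incubated for 48 h with or without ligand before sorting into 6 bins by mCherry/BFP. Genomic DNA from each bin was PCR-amplified, barcoded and sequenced on MiSeq. Fluorescence is the fitted normal mean of the bin counts. The fit used log10(mCherry/BFP), and means were scaled to five spiked-in control ribozymes.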

hypoxanthine [2] = variants of: B1; experiment: normalized RNA/DNA level with ligand (relative to sTRSVctl = 100) (log10 (% of sTRSVctl)); ligand: hypoxanthine (xanthine aptamer); higher = less ribozyme self-cleavage, higher mRNA level; conditions: ligand concentration (+) RNA-Seq: 5 mM, HEK293T, reporter: mCherry (pCS4076), ligand present: yes
Procedure: (§1)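 Hammerhead (sTRSV) ribozyme switch libraries with a ligand aptamer grafted on stem I and a randomized N4-6 loop II, cloned into the 3' UTR of mCherry and transiently transfected into HEK293T cells; RNA-Seq 72 h post transfection with ligand added 1 h before transfection; RNA read count / plasmid DNA read count normalized to the non-cleaving sTRSVctl (x100), log10; sequences with >100 DNA reads. FACS-Seq: lentiviral library sorted into 6 bins after 48 h ligand, log-normal fit mean of mCherry/BFP scaled to controls. Printed sequences are partial switch sequences.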

hypoxanthine [3] = variants of: B1; experiment: normalized RNA/DNA level without ligand (relative to sTRSVctl = 100) (log10 (% of sTRSVctl)); ligand: hypoxanthine (xanthine aptamer); higher = less ribozyme self-cleavage, higher mRNA level; conditions: HEK293T, reporter: mCherry (pCS4076), ligand present: no
Procedure: as §1

hypoxanthine [4] = variants of: B1; experiment: FACS-Seq fitted mean relative fluorescence mCherry/BFP with ligand (log10 relative fluorescence); ligand: hypoxanthine (xanthine aptamer); ligand concentration (+) FACS-Seq: 5 mM; higher = higher reporter protein expression; conditions: HEK293T, ligand present: yes
Procedure: as §1

Variant | FACS-Seq fitted mean (log10) (hypoxanthine [1]) | normalized RNA/DNA level with ligand (log10) (hypoxanthine [2]) | normalized RNA/DNA level without ligand (log10) (hypoxanthine [3]) | FACS-Seq fitted mean (log10) (hypoxanthine [4])
CAGACA | 0.574 ± 0.043 | 1.96 ± 0.032 | 1.75 ± 0.045 | 0.74 ± 0.064
UAGCGA | 0.324 ± 0.049 | 1.89 ± 0.041 | 1.65 ± 0.025 | 0.447 ± 0.054
UAGCGG | 0.335 ± 0.051 | 1.875 ± 0.017 | 1.542 ± 0.011 | 0.534 ± 0.035
GACUGG | 0.157 ± 0.015 | 1.758 ± 0.0058 | 1.42 ± 0.045 | 0.6446 ± 0.0029
GACUGA | 0.742 ± 0.053 | 1.94 ± 0.072 | 1.763 ± 0.011 | 0.639 ± 0.17
GAGGGC | -0.0173 ± 0.076 | 1.87 ± 0.056 | 1.5 ± 0.021 | 0.367 ± 0.041
CAGCGG | 0.2617 ± 0.00076 | 1.9 ± 0.031 | 1.48 ± 0.029 | 0.612 ± 0.059
CAGCGU | -0.166 ± 0.056 | 1.967 ± 0.017 | 1.89 ± 0.046 | -0.185 ± 0.11
AAGGAG | 0.245 ± 0.003 | 1.62 ± 0.068 | 1.12 ± 0.047 | 0.589 ± 0.11
AAGGAA | 0.159 ± 0.16 | 1.869 ± 0.015 | 1.53 ± 0.0077 | 0.411 ± 0.07
AAGGAU | 0.678 ± 0.038 | 1.91 ± 0.037 | 1.653 ± 0.013 | 0.732 ± 0.042
CACUAA | 0.376 ± 0.014 | 1.8618 ± 0.00057 | 1.74 ± 0.025 | 0.456 ± 0.0093
UACUUU | 0.0654 ± 0.07 | 1.97 ± 0.038 | 1.921 ± 0.0072 | 0.288 ± 0.041
AAGUAG | -0.0595 ± 0.042 | 1.593 ± 0.013 | 1.1 ± 0.048 | 0.568 ± 0.023
AAGUAU | 0.434 ± 0.12 | 1.895 ± 0.011 | 1.68 ± 0.019 | 0.301 ± 0.0055
AAGUAC | 0.425 ± 0.075 | 1.89 ± 0.065 | 1.647 ± 0.015 | 0.673 ± 0.064
AAGUAA | 0.279 ± 0.049 | 1.86 ± 0.036 | 1.601 ± 0.012 | 0.457 ± 0.048
GAGCCA | -0.0202 ± 0.12 | 1.93 ± 0.066 | 1.76 ± 0.018 | 0.234 ± 0.1
AAGCAA | 0.4932 ± 0.00094 | 1.899 ± 0.0026 | 1.61 ± 0.053 | 0.591 ± 0.03
AAGCAG | -0.122 ± 0.013 | 1.64 ± 0.044 | 1.19 ± 0.02 | 0.501 ± 0.039
GACGUU | 0.455 ± 0.066 | 1.9 ± 0.044 | 1.853 ± 0.0023 | 0.575 ± 0.066
AAGCGU | 0.27 ± 0.0081 | 1.89 ± 0.05 | 1.62 ± 0.035 | 0.579 ± 0.013
AAGCGG | -0.261 ± 0.031 | 1.65 ± 0.026 | 1.2 ± 0.027 | 0.442 ± 0.054
AAGCGA | 0.221 ± 0.0035 | 1.91 ± 0.052 | 1.43 ± 0.024 | 0.391 ± 0.04

Variant | FACS-Seq fitted mean (log10) (hypoxanthine [1]) | normalized RNA/DNA level with ligand (log10) (hypoxanthine [2]) | normalized RNA/DNA level without ligand (log10) (hypoxanthine [3]) | FACS-Seq fitted mean (log10) (hypoxanthine [4])
AAGCUG | 0.17 ± 0.068 | 1.72 ± 0.032 | 1.23 ± 0.054 | 0.481 ± 0.046
AACGUC | 0.221 ± 0.029 | 2.01 ± 0.052 | 1.949 ± 0.0078 | 0.255 ± 0.0059
AACGUG | 0.285 ± 0.021 | 1.817 ± 0.013 | 1.3 ± 0.041 | 0.737 ± 0.012
AACGUA | 0.494 ± 0.032 | 1.86 ± 0.058 | 1.702 ± 0.0047 | 0.516 ± 0.1
UACGGG | 0.0501 ± 0.0033 | 1.928 ± 0.0024 | 1.509 ± 0.013 | 0.553 ± 0.062
UACGGC | 0.35 ± 0.0036 | 1.95 ± 0.0066 | 1.795 ± 0.0028 | 0.542 ± 0.1
UAGGCC | 0.378 ± 0.066 | 2.002 ± 0.0047 | 1.954 ± 0.0025 | 0.564 ± 0.03
GAGGAC | 0.178 ± 0.038 | 1.91 ± 0.041 | 1.6478 ± 0.00029 | 0.308 ± 0.1
GAGGAG | 0.288 ± 0.028 | 1.65 ± 0.042 | 1.17 ± 0.068 | 0.643 ± 0.013
GAGGAA | 0.318 ± 0.036 | 1.88 ± 0.032 | 1.54 ± 0.026 | 0.581 ± 0.073
AAGUCA | 0.838 ± 0.069 | 1.9 ± 0.062 | 1.63 ± 0.062 | 0.608 ± 0.1
GAGUAA | 0.154 ± 0.061 | 1.878 ± 0.015 | 1.54 ± 0.023 | 0.427 ± 0.056
GAGUAG | -0.0875 ± 0.065 | 1.57 ± 0.033 | 1.13 ± 0.05 | 0.421 ± 0.051
GAGUAC | 0.301 ± 0.14 | 1.907 ± 0.019 | 1.71 ± 0.041 | 0.51 ± 0.013
GAGUAU | 0.3631 ± 0.0016 | 1.913 ± 0.0071 | 1.69 ± 0.021 | 0.472 ± 0.017
GAGAAG | -0.406 ± 0.0075 | 1.55 ± 0.017 | 1.05 ± 0.024 | 0.342 ± 0.037
GAGAAA | 0.546 ± 0.035 | 1.88 ± 0.021 | 1.597 ± 0.015 | 0.651 ± 0.048
GAGAAC | 0.417 ± 0.072 | 1.912 ± 0.0063 | 1.63 ± 0.038 | 0.735 ± 0.033
GAGAAU | 0.4579 ± 0.0037 | 1.91 ± 0.021 | 1.67 ± 0.023 | 0.611 ± 0.05
CAGGUA | -0.0109 ± 0.015 | 1.757 ± 0.016 | 1.57 ± 0.014 | 0.148 ± 0.04
UACUCA | 0.0121 ± 0.031 | 1.95 ± 0.029 | 1.907 ± 0.0097 | 0.0228 ± 0.0046
AAGGCG | 0.0654 ± 0.029 | 1.77 ± 0.08 | 1.24 ± 0.032 | 0.526 ± 0.018
AAGGUG | -0.0635 ± 0.037 | 1.666 ± 0.0026 | 1.22 ± 0.024 | 0.37 ± 0.077
AAGGUU | 0.941 ± 0.099 | 1.93 ± 0.021 | 1.7849 ± 0.0012 | 0.771 ± 0.19

Variant | FACS-Seq fitted mean (log10) (hypoxanthine [1]) | normalized RNA/DNA level with ligand (log10) (hypoxanthine [2]) | normalized RNA/DNA level without ligand (log10) (hypoxanthine [3]) | FACS-Seq fitted mean (log10) (hypoxanthine [4])
AAGGUA | 0.0361 ± 0.0026 | 1.767 ± 0.012 | 1.62 ± 0.021 | 0.162 ± 0.035
AAGACC | 0.483 ± 0.015 | 1.94 ± 0.029 | 1.9 ± 0.027 | 0.305 ± 0.21
AAGACA | 0.332 ± 0.067 | 1.93 ± 0.067 | 1.675 ± 0.012 | 0.559 ± 0.0087
AAGACG | -0.0743 ± 0.0055 | 1.67 ± 0.077 | 1.17 ± 0.027 | 0.587 ± 0.028
CACGGU | 0.663 ± 0.025 | 1.869 ± 0.0027 | 1.758 ± 0.0045 | 0.669 ± 0.15
CACUGG | 0.504 ± 0.03 | 1.9 ± 0.019 | 1.43 ± 0.16 | 0.709 ± 0.016
GAGCGC | 0.507 ± 0.012 | 1.89 ± 0.026 | 1.55 ± 0.017 | 0.556 ± 0.09
GAGCGA | 0.291 ± 0.062 | 1.89 ± 0.03 | 1.497 ± 0.0043 | 0.54 ± 0.037
GAGCGG | -0.363 ± 0.054 | 1.64 ± 0.037 | 1.21 ± 0.073 | 0.0659 ± 0.25
GAGGCA | 0.306 ± 0.0093 | 1.937 ± 0.018 | 1.9192 ± 0.0019 | 0.427 ± 0.021
GAGGCU | 0.751 ± 0.037 | 2 ± 0.021 | 1.98 ± 0.036 | 0.721 ± 0.025
GAGGCG | 0.189 ± 0.012 | 1.95 ± 0.012 | 1.68 ± 0.088 | 0.597 ± 0.047
UACUGU | 0.399 ± 0.032 | 1.95 ± 0.066 | 1.67 ± 0.011 | 0.638 ± 0.036
UAGGAA | 0.348 ± 0.033 | 1.88 ± 0.031 | 1.64 ± 0.018 | 0.483 ± 0.056
UAGGAU | 0.683 ± 0.097 | 1.94 ± 0.027 | 1.66 ± 0.021 | 0.628 ± 0.013
CAGGGG | 0.166 ± 0.0056 | 1.75 ± 0.036 | 1.23 ± 0.06 | 0.48135 ± 0.00032
UAGGUC | 0.588 ± 0.034 | 1.978 ± 0.0051 | 1.95 ± 0.054 | 0.577 ± 0.036
UAGGUG | 0.399 ± 0.065 | 1.89 ± 0.079 | 1.61 ± 0.035 | 0.591 ± 0.012
UAGAAA | 0.355 ± 0.024 | 1.88 ± 0.052 | 1.702 ± 0.013 | 0.469 ± 0.053
UAGAAC | 0.437 ± 0.028 | 1.93 ± 0.031 | 1.809 ± 0.014 | 0.578 ± 0.076
UAGAAU | 0.3304 ± 0.003 | 1.9 ± 0.023 | 1.72 ± 0.03 | 0.6203 ± 0.0037
UAGAAG | 0.421 ± 0.0051 | 1.858 ± 0.0066 | 1.47 ± 0.022 | 0.577 ± 0.057
UAGCAG | 0.215 ± 0.033 | 1.87 ± 0.02 | 1.61 ± 0.038 | 0.507 ± 0.05
